Like-named read-outs stand apart in the source and are kept apart here.

The target of experiment [1] is Lsp1, C-terminally tagged with mVenus or mCerulean (S. cerevisiae) (UniProt Q12230). The experiment can be described thus: FRET or BRET. On the technique in general: Bioluminescence resonance energy transfer reports proximity on the nanometre scale.
Experiment [2] has the same target. In words: FRET or BRET. This is another data set of the same source.
Experiment [3] shares this target. In words: FRET or BRET. This is another data set of the same source.
Experiment [4] addresses Pil1, C-terminally tagged with mVenus or mCerulean (S. cerevisiae) (UniProt P53252). In words: FRET or BRET.
For experiment [5] the target is unchanged. The experiment can be described thus: number and brightness.
Experiment [6] shares this target. The experiment can be described thus: FRET or BRET. The source holds these as a separate data set.
Experiment [7] shares this target. In words: FRET or BRET. The source holds these as a separate data set.
Experiment [8] has the same target. The experiment can be described thus: FRET or BRET. The source holds these as a separate data set.
The target is the same in experiment [9]. In words: FRET or BRET. The source holds these as a separate data set.
The target is the same in experiment [10]. In words: FRET or BRET. This is another data set of the same source.
The target is the same in experiment [11]. The experiment can be described thus: FRET or BRET. The source holds these as a separate data set.

Regarding “Lsp1, C-terminally tagged with mVenus or mCerulean (from UniProt Q12230 1-341) (natural protein)”, the values for the FRET efficiency in experiment [1], in [2] and in [3] were 30%, 20% and 20%, respectively.
On to “Pil1, C-terminally tagged with mVenus or mCerulean (from UniProt P53252 1-339) (natural protein)”, for which the FRET efficiency in experiment [4] came to 28%; in [6] it was 10%; in [7] it was 20%; in experiment [8], 5%; in experiment [9] it was 18%; in experiment [10], 10%. In addition, in [11], the FRET efficiency worked out at 15%. The same substance displayed a percent of Pil1-mVenus that corresponds to oligomers in experiment [5] of 8%.

The values above are taken from article PMC4390835.
